Experimental data taken from PMC7758071.
Values joined by “and” are separate entries in the source; they are usually repeats but may differ in a detail not shown here. Identical values can stand only once.

Biological target: Chinese hamster BiP, wild type, with an N-terminal His6-tag (UK173) (Chinese hamster) (UniProt G3I8R9)
Experiment: SEC; 40 µM BiP with 1 mM ADP, 20 min at 24°C; SEC-3 HPLC column, 50 mM HEPES-KOH pH 7.4, 150 mM KCl, 10 mM MgCl2, 26°C; A230

“Chinese hamster BiP, wild type, with an N-terminal His6-tag (UK173) (from UniProt G3I8R9 19-654) (natural protein)” was tested, and the stoichiometry N was 2 and 3.
